1 molecule from patent publication US20220242958A1, “BISPECIFIC NANOBODIES” (Ablynx N.V., priority 2013, published 2022) can be followed below.

Like-named read-outs stand apart in the source and are kept apart here.

The IC50 is the concentration at which inhibition is half-maximal. What is called EC50 is the midpoint of the concentration-response curve. Lower therefore signals a more potent agent.

The target in assay [1] is T1, CXCR4 on Caki-CXCR4 cells (Homo sapiens, UniProt P61073).
T1 construct: expressed in transfected cells; host or cells: Caki-CXCR4
Description: Biotinylated SDF-1 displacement on Caki-CXCR4 cells (flow cytometry). Format: binding. As to conditions: 30 nM biotinylated SDF-1; read-out: Ligand competition Biotin-SDF-1 IC50. The procedure:
CXCR4 Nanobodies were analysed for their ability to compete with the ligand CXCL12 (or SDF-1a) for receptor binding, by displacement of biotinylated SDF-1 on Caki-CXCR4 cells in flow cytometry. To this end serial dilutions of Nanobodies were incubated with 30 nM of biotinylated SDF-1 (R&D Systems Fluorokine kit) on cells, after which ligand binding was visualised using extravidin-PE. The biotin-SDF-1 competitor concentration used in this assay was below the EC50 value obtained in dose-titration, where IC50 values should reflect the Ki.

Assay [2] addresses T2, CXCR4 on Jurkat E6-1 cells (Homo sapiens, UniProt P61073).
T2 construct: endogenous in cells; host or cells: Jurkat E6-1
Description: CXCL12/SDF-1a induced chemotaxis of Jurkat E6-1 cells. The format is cell-based. The procedure:
(§1) To verify if bispecific CXCR4-IL3Ra polypeptides show increased affinity and potency on cells expressing both receptors, a CXCR4-dependent functional assay was carried out. To this end SDF-1a dependent chemotaxis on Jurkat E6-1 (CXCR4+/IL3Ra−), and MOLM-13 cells (CXCR4+/IL3Ra+) was performed for direct comparison of cells expressing both or only one receptor. Since the functional blockade is only mediated via CXCR4, avidity by the simultaneous binding of the anti-IL3Ra Nanobody® is expected to translate into increased potency in inhibition of chemotaxis.
Bispecific polypeptides were analyzed for inhibition of CXCL12-induced chemotaxis on cells endogenously expressing CXCR4. As chemoattractant a concentration of 750 pM SDF-1a was used on 100,000 cells/well for the Jurkat cell line, and 500,000 cells/well for the MOLM-13 cell line. On each plate the corresponding monovalent CXCR4 Nanobody was included as reference, allowing to calculate the fold increase of the bispecific within each plate. As additional control 1:1 mixtures of monovalent Nanobodies were included. In Table 9 the respective IC50 values are shown (average of n=3 experiments).
To verify if bispecific CXCR4-IL-3Ra polypeptides show increased affinity and potency on cells expressing both receptors, a CXCR4-dependent functional assay was done. Since MOLM-13 cells express CD4 in conjunction with CXCR4 and CD123, the same experimental set-up was used as described for the CXCR4-CD123 bispecific Nanobodies (see: Example 1.5.5).
Dose-dependent inhibition of CXCL12-induced chemotaxis by the panel of bispecific CD4-CXCR4 Nanobodies was determined on Jurkat (CXCR4+/CD4 low), and Molm-13 cells (CXCR4++/CD4++). As reference anti-CXCR4 antibody 12G5 was included on each plate. […] Remarkably, bispecific constructs in the inverse orientation were able to block CXCR4 function, despite their reduced affinity for CXCR4 due to the unfavourable position, although the blockade was partial. The much larger potency increases observed with Nanobodies targeting the CD4 and CXCR4 combination is most likely related to the higher relative expression levels of CD4 compared to CD123 on the Molm-13 cells.

The next assay has as its target T3, CXCR4 on MOLM-13 cells (Homo sapiens, UniProt P61073).
T3 construct: endogenous in cells; host or cells: MOLM-13
The assay is described as follows: CXCL12/SDF-1a induced chemotaxis of MOLM-13 cells. The format is cell-based. As to conditions: average of 2-3 independent experiments; unit inferred; read-out: MOLM-13 IC50, inhibition of CXCL-12 induced chemotaxis. The procedure: as §1
Bispecific polypeptides were analyzed for inhibition of CXCL12-induced chemotaxis on cells endogenously expressing CXCR4. As chemoattractant a concentration of 750 pM SDF-1a was used on 100,000 cells/well for the Jurkat cell line, and 500,000 cells/well for the MOLM-13 cell line. On each plate the corresponding monovalent CXCR4 Nanobody was included as reference, allowing to calculate the fold increase of the bispecific within each plate. As additional control 1:1 mixtures of monovalent Nanobodies were included. In Table 9 the respective IC50 values are shown (average of n=3 experiments). […]
Dose-dependent inhibition of CXCL12-induced chemotaxis by the panel of bispecific CD4-CXCR4 Nanobodies was determined on Jurkat (CXCR4+/CD4 low), and Molm-13 cells (CXCR4++/CD4++). […]

Assay [3] addresses T1, CXCR4 on Caki-CXCR4 cells. Description: Binding of CXCR4 Nanobodies to Caki-CXCR4 cells.
A further assay addresses T4, CXCR4 on Jurkat cells (Homo sapiens, UniProt P61073).
T4 construct: endogenous in cells; host or cells: Jurkat E6-1
The assay is described as follows: Binding of CXCR4 Nanobodies to Jurkat cells.

For a further assay, the target named is T5, CXCR4-VLP (Homo sapiens, UniProt P61073).
T5 construct: purchased Integral Molecular (printed 'Molecular Integral')
The assay is described as follows: ELISA binding to CXCR4 viral lipoparticles (VLP). Here is the method: Binding of CXCR4 Nanobodies to CXCR4-expressing cells was assessed on different cell lines, to assess EC50 values. For CXCR4 the membrane insertion is needed for proper conformation and functionality of the receptor. Therefore CXCR4 Nanobodies were characterized for binding to viral lipoparticles (VLP; Molecular Integral) expressing CXCR4 versus control lipoparticles in ELISA. To this end VLPs were coated at 0.5 U/well overnight at 4° C. using anti-myc antibodies for detection. Over all different binding assays, Nanobody 14D09 always exerted lower binding affinity than 14A02, as indicated by a shift in EC50 values. The results are depicted in FIG. 1.3.
To assess if the formatting into bispecific constructs affected the target binding capacity of the individual Nanobodies, the bispecific Nanobodies were analysed for binding to recombinant IL-3Ra (R&D Systems) in ELISA and to CXCR4 viral lipoparticles (Integral Molecular). […] However, CXCR4 binding of constructs with either CXCR4#1 or CXCR4#2 is retained only in one orientation, when the CXCR4 Nanobody is at the N-terminal position. The bispecific constructs where the CXCR4 Nanobody is positioned C-terminal show a 50-100-fold loss in binding to CXCR4-VLPs.

T2 sequence (P61073 whole entry): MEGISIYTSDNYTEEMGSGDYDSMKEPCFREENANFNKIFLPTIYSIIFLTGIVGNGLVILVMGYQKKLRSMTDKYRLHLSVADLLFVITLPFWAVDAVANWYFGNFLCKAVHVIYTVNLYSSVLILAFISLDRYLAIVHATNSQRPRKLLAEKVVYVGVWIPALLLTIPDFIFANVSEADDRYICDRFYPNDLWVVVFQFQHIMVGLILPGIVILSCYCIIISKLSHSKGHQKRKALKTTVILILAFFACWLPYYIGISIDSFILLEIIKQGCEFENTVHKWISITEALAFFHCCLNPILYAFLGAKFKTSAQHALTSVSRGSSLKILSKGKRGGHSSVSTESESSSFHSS
T1 sequence (P61073 whole entry): as above
T5 sequence (P61073 whole entry): as above
T4 sequence (P61073 whole entry): as above
T3 sequence (P61073 whole entry): as above

B1: CXCR4#1: anti-CXCR4 Nanobody, SEQ ID NO: 1 (protein)
VHH: EVQLVESGGGLVQAGGSLRLSCVASGISSSKRNMGWYRQAPGKQRESVATISSGGNKDYTDAVKDRFTISRDTTKNTVYLQMNSLKPEDTAVYYCKIEAGTGWATRRGYTYWGQGTQVTVSS
Take B1: the IC50 in assay [1] is 18.4 nM; in assay [2] (average of 2-3 independent experiments, unit inferred, read-out: Jurkat E6-1 IC50, inhibition of CXCL-12 induced chemotaxis), 10.4 nM; in assay [2] (cell line not stated, read-out: IC50 of monovalent CXCR4 Nanobody (chemotaxis potency)), 10 nM; in assay [2] (monovalent CXCR4 Nanobodies, Table 4, read-out: Chemotaxis Jurkat IC50), 11 nM; with CXCR4 on MOLM-13 cells, 8.62 nM. For the same molecule, the figures for the EC50 (in assay [3]; in the assay with CXCR4 on Jurkat cells; with CXCR4-VLP) were 9.9 nM, 11 nM and 7.28 nM, respectively.
